Test results: patent US20240010750A1 (Bayer, published 2024)
Read-outs that look alike come from different tables or passages of the source.

T1: human alpha2-Antiplasmin (human, UniProt P08697 40-491)
T1 sequence: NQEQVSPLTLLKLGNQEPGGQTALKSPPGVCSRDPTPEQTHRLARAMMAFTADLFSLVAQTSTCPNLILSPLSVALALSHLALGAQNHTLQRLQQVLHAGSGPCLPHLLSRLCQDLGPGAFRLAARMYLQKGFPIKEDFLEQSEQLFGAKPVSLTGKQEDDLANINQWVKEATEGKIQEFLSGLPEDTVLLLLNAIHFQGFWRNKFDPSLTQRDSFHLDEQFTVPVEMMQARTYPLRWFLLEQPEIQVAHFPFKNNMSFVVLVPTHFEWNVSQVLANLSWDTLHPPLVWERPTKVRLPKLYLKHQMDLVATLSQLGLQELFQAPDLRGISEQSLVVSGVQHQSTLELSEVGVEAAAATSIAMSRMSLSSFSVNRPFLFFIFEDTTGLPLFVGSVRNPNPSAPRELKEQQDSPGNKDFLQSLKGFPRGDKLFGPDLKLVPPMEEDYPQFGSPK


Key:
human alpha2-Antiplasmin [1] = biological target: T1, human alpha2-Antiplasmin; test: cell-based or functional assay
human alpha2-Antiplasmin [2] = biological target: T1, human alpha2-Antiplasmin; test: cell-based or functional assay; remark: listed apart in the source
human alpha2-Antiplasmin [3] = biological target: T1, human alpha2-Antiplasmin; test: ELISA, coated antigen, 2nd exp.
Protocol: (§1) A standard ELISA format was used for analyzing the binding affinity of Fabs of this invention to human and rabbit alpha-2-Antiplasmin, respectively. Antigens were coated to black 384 well Maxisorp microtiter plates (Nunc; catalogue number 460518), diluted to a concentration of 1 μg/ml in 1× Coating Buffer (Candor Bioscience; catalogue number 121125). Plates were incubated overnight at 4° C. After overnight incubation, plates were washed 2× with 50 μl/well using PBS+0.05% Tween 20. Following this, 50 μl/well of blocking buffer (Smart Block; Candor Bioscience; catalogue number 113500) was added and the plates were incubated for 1 hour at room temperature. Afterwards, plates were washed for 3× using […] PBS+0.05% Tween 20 buffer. Fabs of this invention were added at different concentrations in a final volume of 30 μl/well. Plates were incubated for 1 hour at room temperature. Following this incubation step, plates were washed for 3× using 50 μl/well of a PBS+0.05% Tween 20 buffer. For the detection of bound Fabs and full-length antibodies, the anti-Human Lambda Light Chains (Bound and Free)—Peroxidase antibody (Sigma; catalogue number A5175) was diluted by the factor of 1:10.000 in 10% Blocking Buffer. 30 μl/well of this diluted detection antibody was added and plates are incubated for 1 hour at room temperature. Following this incubation step, plates were washed for 3× using 50 μl/well of a PBS+0.05% Tween 20 buffer. As substrate, a mixture of 30 μl/well of 1:1000 diluted Amplex red (Invitrogen; catalogue number 12222; stock solution 10 mM in DMSO) and 1:10.000 of Hydrogen peroxide (Merck; catalogue number 107209; 30% stock solution) was added and the plates incubated for minutes in the dark.
(§2) For measurement, the Infinite f500 reader (Tecan) was used. Measurement mode: Fluorescence; Top reading; Ex 535 nm; Em 590 nm.
(§3) According to the methods described in Example 3 and Example 4, antibodies TPP-14323, TPP-14318, TPP-14314, TPP-14313, TPP-14308, TPP-14305, TPP-14303, TPP-14298, and TPP-14293 were tested for their ability to bind to and to block the activity of human alpha2-Antiplasmin in a dose-dependent manner. For each antibody, one dose response curve from two to three independent experiments performed in quadruplicate is shown as example in FIG. 7.1 to FIG. 7.18. (see Table 3.3)

human alpha2-Antiplasmin [4] = biological target: T1, human alpha2-Antiplasmin; test: ELISA, coated antigen, 1st exp.
Protocol: as §1, §2, §3

human Plasmin = human Plasmin (human, UniProt P00747 97-580; P00747 581-810, limits assumed); test: cell-based or functional assay
human alpha2-Antiplasmin [5] = biological target: T1, human alpha2-Antiplasmin; test: ELISA, coated antigen, 3rd exp.
Protocol: as §1, §2, §3

human alpha2-Antiplasmin [6] = biological target: T1, human alpha2-Antiplasmin; test: ELISA, coated antigen, 3rd exp.; 3rd exp.
Protocol: as §1, with “30 μl/well of this diluted detection antibody was added and plates are incubated for 1 hour at room temperature. Following this incubation step, plates were washed for 3× using 50 μl/well of a PBS+0.05% Tween 20 buffer. As substrate, a mixture of 30 μl/well of 1:1000 diluted Amplex red (Invitrogen; catalogue number 12222; stock solution 10 mM in DMSO) and 1:10.000 of Hydrogen peroxide (Merck; catalogue number 107209; 30% stock solution) was added and the plates incubated for minutes in the dark.” left out
For measurement, the Infinite f500 reader (Tecan) was used. Measurement mode: Fluorescence; Top reading; Ex 535 nm; Em 590 nm. […]

human alpha2-Antiplasmin [7] = biological target: T1, human alpha2-Antiplasmin; test: cell-based or functional assay; remark: listed apart in the source

human Plasmin, sequence (P00747 97-580 limits assumed, chain 1 of 2): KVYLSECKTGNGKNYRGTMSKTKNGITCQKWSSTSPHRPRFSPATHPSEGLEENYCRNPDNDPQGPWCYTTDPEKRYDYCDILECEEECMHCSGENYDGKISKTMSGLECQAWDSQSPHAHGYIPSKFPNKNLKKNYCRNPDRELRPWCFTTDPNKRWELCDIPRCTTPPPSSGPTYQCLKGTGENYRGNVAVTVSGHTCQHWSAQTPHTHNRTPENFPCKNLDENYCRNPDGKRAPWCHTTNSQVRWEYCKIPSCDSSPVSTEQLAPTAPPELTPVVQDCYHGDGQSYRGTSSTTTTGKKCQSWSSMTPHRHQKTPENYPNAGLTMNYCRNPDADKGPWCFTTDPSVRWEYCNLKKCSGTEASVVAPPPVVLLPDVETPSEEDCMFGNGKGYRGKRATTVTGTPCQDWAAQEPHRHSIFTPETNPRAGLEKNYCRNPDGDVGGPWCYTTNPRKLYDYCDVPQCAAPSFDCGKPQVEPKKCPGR
human Plasmin, sequence (P00747 581-810 limits assumed, chain 2 of 2): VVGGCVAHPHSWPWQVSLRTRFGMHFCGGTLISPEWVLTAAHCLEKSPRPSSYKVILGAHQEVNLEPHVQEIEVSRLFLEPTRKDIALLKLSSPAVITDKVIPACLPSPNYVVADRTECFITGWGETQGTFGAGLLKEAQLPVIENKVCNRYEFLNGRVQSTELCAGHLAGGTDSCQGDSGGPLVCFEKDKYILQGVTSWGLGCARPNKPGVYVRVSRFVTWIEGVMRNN

| EC50 (read off the curve); function blocking assay (Example 4), RFU of plasmin substrate cleavage (human alpha2-Antiplasmin [1]) | function blocking activity [IC50 M], 1st exp. (human alpha2-Antiplasmin [2]) | function blocking activity [IC50 M], 2nd exp. (human alpha2-Antiplasmin [2]) | function blocking activity [IC50 M], 3rd exp. (human alpha2-Antiplasmin [2]) | EC50 (human alpha2-Antiplasmin [3]) | EC50 (human alpha2-Antiplasmin [4]) | IC50 [M], inhibition of plasmin proteolytic activity (human Plasmin) | EC50 (human alpha2-Antiplasmin [5]) | EC50 (human alpha2-Antiplasmin [6]) | EC50 (read off the curve); function blocking assay (Example 4), RFU of plasmin substrate cleavage (human alpha2-Antiplasmin [7]) | Binder |
| --- | --- | --- | --- | --- | --- | --- | --- | --- | --- | --- |
| ~50 nM | 46 nM | 48 nM | 50 nM | 12 nM | 12 nM | > 5e-06 M | 12 nM | – | – | TPP-14293 hIgG1 (antibody, V domains shown) VH: EVQLLESGGGLVQPGGSLRLSCAASGFTFDDYAMSWVRQAPGKGLEWVSAIGTGGGTYYADSVKGRFTISRDNSKNTLYLQMNSLRAEDTAVYYCDREYYDSSGYYHLDYWGQGTLVTVSS VL: QSVLTQPPSASGTPGQRVTISCTGSSSNIGATYDVHWYQQLPGTAPKLLIYSNNQRPSGVPDRFSGSKSGTSASLAISGLRSEDEADYYCAAWDWSLSGWVFGGGTKLTVLG |
| – | 85 nM | 89 nM | 94 nM | 29 nM | 24 nM | > 1e-05 M | – | 27 nM | ~80 nM | TPP-14303 hIgG1 (antibody, V domains shown) VH: EVQLLESGGGLVQPGGSLRLSCAASGFTFDDYAMSWVRQAPGKGLEWVSAIGTGGGTYYADSVKGRFTISRDNSKNTLYLQMNSLRAEDTAVYYCAREDYDSSGYYHLDYWGQGTLVTVSS VL: QSVLTQPPSASGTPGQRVTISCTGSSSNIGATYDVHWYQQLPGTAPKLLIYSNNQRPSGVPDRFSGSKSGTSASLAISGLRSEDEADYYCAAWDWSLSGWVFGGGTKLTVLG |
